Laboratory results: patent EP4799607A2

Biological target: human VEGF165 (human) (UniProt P15692)
Assay: population PK model estimate, Michaelis-Menten binding of free aflibercept to VEGF in plasma (in vivo, model-derived)

Chain of UniProt P15692 (P15692 other isoform, or with tags, fused parts or gaps limits assumed): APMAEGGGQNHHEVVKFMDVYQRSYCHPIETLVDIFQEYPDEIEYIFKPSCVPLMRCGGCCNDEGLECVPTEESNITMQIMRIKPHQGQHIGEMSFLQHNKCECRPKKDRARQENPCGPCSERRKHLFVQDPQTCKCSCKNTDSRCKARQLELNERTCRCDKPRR
Chain of aflibercept (chain): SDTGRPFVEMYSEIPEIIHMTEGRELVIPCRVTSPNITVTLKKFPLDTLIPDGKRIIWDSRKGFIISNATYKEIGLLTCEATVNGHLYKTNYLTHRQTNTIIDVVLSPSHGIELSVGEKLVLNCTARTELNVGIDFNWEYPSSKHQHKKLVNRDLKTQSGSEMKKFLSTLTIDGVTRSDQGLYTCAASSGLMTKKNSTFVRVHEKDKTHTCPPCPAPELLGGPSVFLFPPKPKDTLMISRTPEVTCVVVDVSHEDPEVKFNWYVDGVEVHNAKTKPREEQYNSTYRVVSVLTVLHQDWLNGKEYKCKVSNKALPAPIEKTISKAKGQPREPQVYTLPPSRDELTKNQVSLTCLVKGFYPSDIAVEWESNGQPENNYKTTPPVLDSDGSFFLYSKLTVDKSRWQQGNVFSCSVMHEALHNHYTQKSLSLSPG

- KM (concentration of free aflibercept at half of maximum binding capacity with VEGF): 0.411 mg/L
- VMK24 (maximum binding rate of free aflibercept to VEGF): 0.167 mg/day/L
Substance: aflibercept (Fc fusion)
